# Assay results reported in patent US20060035359A1 (BURNHAM INSTITUTE, published 2006).
# Key:
# His-CKS1 = His-CKS1 (UniProt P61024)
# [1] = biological target: T1, fusion protein of the B42 trans-activation domain fused to Apaf-1 (UniProt O14727 1-1248); assay: yeast two-hybrid, LEU2 growth and beta-galactosidase filter assay
# T1 sequence (looked up): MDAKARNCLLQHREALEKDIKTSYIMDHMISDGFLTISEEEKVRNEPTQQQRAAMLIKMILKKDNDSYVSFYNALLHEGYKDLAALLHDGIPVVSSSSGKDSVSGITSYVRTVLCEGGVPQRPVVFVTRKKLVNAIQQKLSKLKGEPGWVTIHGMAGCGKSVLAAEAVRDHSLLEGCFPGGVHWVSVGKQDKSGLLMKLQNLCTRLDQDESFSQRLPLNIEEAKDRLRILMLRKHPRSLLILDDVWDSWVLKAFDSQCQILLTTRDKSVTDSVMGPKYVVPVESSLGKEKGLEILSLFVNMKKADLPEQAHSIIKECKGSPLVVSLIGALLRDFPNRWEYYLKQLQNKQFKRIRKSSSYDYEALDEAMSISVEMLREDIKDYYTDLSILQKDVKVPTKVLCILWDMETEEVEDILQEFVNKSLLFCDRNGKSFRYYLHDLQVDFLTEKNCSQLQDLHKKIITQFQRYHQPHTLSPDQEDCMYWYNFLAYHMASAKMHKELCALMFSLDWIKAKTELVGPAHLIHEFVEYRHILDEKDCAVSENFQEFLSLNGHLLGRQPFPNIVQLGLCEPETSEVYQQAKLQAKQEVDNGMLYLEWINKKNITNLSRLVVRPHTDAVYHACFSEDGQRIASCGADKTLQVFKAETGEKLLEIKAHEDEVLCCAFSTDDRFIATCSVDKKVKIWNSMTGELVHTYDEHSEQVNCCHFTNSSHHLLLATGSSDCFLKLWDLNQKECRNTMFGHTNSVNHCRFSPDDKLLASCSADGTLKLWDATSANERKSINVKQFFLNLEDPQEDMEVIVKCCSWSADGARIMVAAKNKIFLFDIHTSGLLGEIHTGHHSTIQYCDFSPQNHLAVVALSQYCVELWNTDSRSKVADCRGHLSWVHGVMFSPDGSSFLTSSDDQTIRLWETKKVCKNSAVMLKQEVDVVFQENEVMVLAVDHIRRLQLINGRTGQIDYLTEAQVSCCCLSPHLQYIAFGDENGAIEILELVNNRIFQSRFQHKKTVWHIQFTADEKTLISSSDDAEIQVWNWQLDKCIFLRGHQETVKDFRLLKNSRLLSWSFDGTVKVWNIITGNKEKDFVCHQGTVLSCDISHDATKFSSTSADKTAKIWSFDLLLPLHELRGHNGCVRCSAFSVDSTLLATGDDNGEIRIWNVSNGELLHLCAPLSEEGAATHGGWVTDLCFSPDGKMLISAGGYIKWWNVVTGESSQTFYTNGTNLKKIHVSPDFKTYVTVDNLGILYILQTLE
# Procedure: (§1) A plasmid (1 μg DNA) encoding a fusion protein of the LexA DNA-binding domain appended to the N-terminus of SBP1 was co-transformed into yeast strain EGY48 with […] of pJG4-5 plasmid encoding fusion proteins of the B42 trans-activation domain fused to Survivin, Survivin T34E, Bcl-2, pro-caspase-9, XIAP, Bax, or Apaf-1. Bcl-2, pro-caspase-9, XIAP, Bax, and Apaf-1 are other […]. […] Only the Survivin T34E scored positive for leucine and β-galactosidase activity, wild type Survivin, Bcl-2, caspase-9, XIAP, Bax and Apaf-1 scored negative under the conditions.
# [2] = biological target: fusion protein of the B42 trans-activation domain fused to XIAP (UniProt P98170 1-497); assay: as above
# Procedure: as §1
# [3] = biological target: T2, fusion protein of the B42 trans-activation domain fused to pro-caspase-9 (UniProt P55211 1-416); assay: as above
# T2 sequence (looked up): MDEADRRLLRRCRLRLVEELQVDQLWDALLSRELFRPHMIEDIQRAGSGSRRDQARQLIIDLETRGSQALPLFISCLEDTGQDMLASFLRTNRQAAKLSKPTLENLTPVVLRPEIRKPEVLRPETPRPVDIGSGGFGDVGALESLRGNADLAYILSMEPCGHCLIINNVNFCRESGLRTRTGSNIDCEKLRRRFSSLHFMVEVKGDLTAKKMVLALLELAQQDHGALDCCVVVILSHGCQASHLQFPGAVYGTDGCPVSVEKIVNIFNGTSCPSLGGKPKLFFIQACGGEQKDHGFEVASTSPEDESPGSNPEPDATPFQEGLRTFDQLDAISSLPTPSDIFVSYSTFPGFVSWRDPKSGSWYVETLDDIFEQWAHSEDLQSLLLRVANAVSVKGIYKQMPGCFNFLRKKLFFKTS
# Procedure: as §1
# [4] = biological target: T3, 35S-labeled in vitro translated (IVT) SBP1 protein (human, UniProt Q8N5L8 1-163, 35S label); assay: GST pull-down of 35S-labeled IVT SBP1, SDS-PAGE and fluorography
# T3 construct: Translated in reticulocyte lysate from the full-length SBP1 cDNA; The two differ only at the C-terminal residues; also called full-length SBP1; human SBP1
# T3 sequence: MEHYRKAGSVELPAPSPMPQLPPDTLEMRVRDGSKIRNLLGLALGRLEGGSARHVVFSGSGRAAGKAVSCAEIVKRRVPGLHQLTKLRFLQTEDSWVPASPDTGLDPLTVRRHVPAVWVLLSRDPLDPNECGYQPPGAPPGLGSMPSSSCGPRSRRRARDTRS
# Procedure: cDNAs encoding wild type Survivin or Survivin T34E was cloned into the EcoRI and XhoI sites of pGEX-4T-1 (Amersham-Pharmacia, Sweden), expressed in XL-1-blue cells (Stratagene, Inc., La Jolla, Calif.), and affinity-purified using glutathione-Sepharose, using methods essentially as described in (Xie et al., 1998, Biochemistry, 37:6410-6418). A GST-CD40 fusion protein was included as a negative control. Purified GST-fusion proteins (0.5-1.0 μg immobilized on 10-20 μl of glutathione beads) and 2.5 μl of […] reticulocyte lysates (TNT-Lysates; Promega, Inc., Madison, Wis.) containing ³⁵S-labeled in vitro translated (IVT) SBP1 protein were incubated in […] of HKMEN (10 mM HEPES [pH 7.2], 142 mM KCl, 5 mM MgCl₂, 2 mM EGTA, 0.1% NP-40) at 4° C. for 30 minutes. The beads were washed 3× with 1 ml HKMEN solution to remove unbound ³⁵S-labeled IVT SBP1 protein, followed by boiling in 25 μl of Laemmli-SDS sample buffer to release and denature SBP1 bound to the matrix-bound GST-fusion protein. The eluted proteins were analyzed by SDS-PAGE (12%) and detected by fluorography.
# Chain of fusion protein of the B42 trans-activation domain fused to XIAP (P98170 whole entry, the tested form may be a part): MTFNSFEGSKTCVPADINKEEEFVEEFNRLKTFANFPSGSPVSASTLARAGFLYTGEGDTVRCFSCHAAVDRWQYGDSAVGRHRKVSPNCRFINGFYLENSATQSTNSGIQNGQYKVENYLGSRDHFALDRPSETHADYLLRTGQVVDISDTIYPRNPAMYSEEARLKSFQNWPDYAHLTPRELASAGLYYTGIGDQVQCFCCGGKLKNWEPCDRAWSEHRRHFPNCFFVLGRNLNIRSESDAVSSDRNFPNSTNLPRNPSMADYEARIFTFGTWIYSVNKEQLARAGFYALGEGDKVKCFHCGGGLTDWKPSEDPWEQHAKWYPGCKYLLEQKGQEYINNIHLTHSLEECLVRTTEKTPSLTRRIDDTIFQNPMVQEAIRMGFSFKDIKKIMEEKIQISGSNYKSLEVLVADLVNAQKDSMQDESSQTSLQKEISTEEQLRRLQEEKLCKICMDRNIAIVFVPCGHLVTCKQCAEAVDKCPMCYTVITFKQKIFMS
# Chain of His-CKS1 (P61024 whole entry, looked up, the tested form may be a part): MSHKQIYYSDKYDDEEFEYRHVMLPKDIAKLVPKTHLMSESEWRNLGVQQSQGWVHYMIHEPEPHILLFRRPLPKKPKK
molecule,measurement,setting,value
immunoprecipitated cyclin B1/cdc2,histone H1 phosphorylation,His-CKS1,is phosphorylated in the added presence of His-Cks 1
"fusion protein of the LexA DNA-binding domain appended to the N-terminus of SBP1 (other, Yeast two-hybrid construct expressed in yeast strain EGY48) MKALTARQQEVFDLIRDHISQTGMPPTRAEIAQRLGFRSPNAAEEHLKALARKGVIEIVSGASRGIRLLQEEEEGLPLVGRVAAGEPLLAQQHIEGHYQVDPSLFKPNADFLLRVSGMSMKDIGIMDGDLLAVHKTQDVRNGQVVVARIDDEVTVKRLKKQGNKVELLPENSEFKPIVVDLRQQSFTIEGLAVGVIRNGDWLMEHYRKAGSVELPAPSPMPQLPPDTLEMRVRDGSKIRNLLGLALGRLEGGSARHVVFSGSGRAAGKAVSCAEIVKRRVPGLHQLTKLRFLQTEDSWVPASPDTGLDPLTVRRHVPAVWVLLSRDPLDPNECGYQPPGAPPGLGSMPSSSCGPRSRRRARDTRS",binding result,[1],no binding
same,binding result,[2],no binding
same,binding result,[3],no binding
"GST-CD40 cytosolic domain protein (other, UniProt P25942 216-277, looked up, domain: cytosolic domain; Negative control; also called GST-CD40 fusion protein; not shown: glutathione S-transferase (GST) fusion partner) KKVAKKPTNKAPHPKQEPQEINFPDDLPGSNTAAPVQETLHGCQPVTQEDGKESRISVQERQ",binding result,[4],no binding
